Measured values as given in the RNAGym collection of RNA variant scans (doi:10.1073/pnas.2313332121).
Fewer inactive variants are shown than the library holds.

B1: TPR 5TU (parent)
chain: GGAUCUUCUCGAUCUAACAAAAAAGACAAAUCUGCCACAAAGCUUGAGAGCAUCUUCGGAUGCAGAGGCGGCAGCCUUCGGUGGCGCGAUAGCGCCAACGUUCUCAACUAUGACACGCAAAACGCGUGCUCCGUUGAAUGGAGUUUAUCAUG

Variants of: B1
Experiment: polymerase ribozyme fitness, log enrichment relative to wild type (log ratio); higher = more active; in vitro selection for triplet polymerase activity
Procedure, shortened: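 Each subunit of a heterodimeric triplet polymerase ribozyme was represented by a PCR-built, transcribed mutant library that underwent triplicate single-round in vitro selection with frozen incubation at −7 °C. Extended constructs were recovered by gel excision, streptavidin-bead capture and RT-PCR, and Illumina sequencing of input and output libraries kept genotypes with ≥10 input reads and ≥1 read per output. Fitness is the logarithm of genotype enrichment relative to wild-type enrichment, from inverse-variance-weighted replicate averages, with a logarithm base of 2.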

Row | Variant | polymerase ribozyme fitness (log ratio)
1 | GGAUGAUCUCGAUCUAACAAAAAAGACAAAUGUGCCACAAAGCUUGAGAGCAUCUUCGGAUGCAGAGGCGGCAGCCAUCGGUGGCGGGAUAGCGCCAACGUUCUCAACUAUGAUACGCAAAACGCGUGCUCCGUUGAAUGGAGUUUAUCAUG [C5G U6A C32G U77A C87G C114U] | ≤ -4.2
2 | GGAUCUUCUCGAUCUAACAAAAAAGACAAAUCUGCCACAAAGCUUGAGAGCAUCUUCGGAUGUAGAGGCAGCAGCCUUCCGUCGCGCGAUAGCGCCAACGUUCUCAAGUAUGACAUGCAAAACGCGUGCUCCGUUGAAUGGAGUUUAUCAUG [C63U G70A G80C G83C C108G C116U] | ≤ -4.2
3 | GGAUCUUCUCGAUCUAACAAAAAAGACAAAUCUGCCACAAAGCUUGAGAGCAUCUUCGGAUGCAGAGGCGGCAGCAUUCGGUGGCGCGAUAGCGCCAACGUUCACAACUAUGACACGCAAAACGAGUGCUCCGUUGAAUGGCGAUUAUCAUG [C76A U104A C125A A142C U144A] | ≤ -4.2
4 | GGAUCUUCUCGAUCUAAUAAAAAAGACAAAUCUGCCACAAAGCUUGAGAGCAUCUUCGGAUGCAGAGGCGGCAGCCUUCGGUGGUGCGAUAGCGCCAACGUUCUCAACUAUGACACGCAAAACGCGUGCUCCGUUGAAUGGAGUUUAUCAUG [C18U C85U] | -0.241
5 | GGAUCUUCUCGAUCUAACAAAAAAGACAAAUCUGCCACAAAGCUUGUGAGAAUCUUCAGAUGCAGAGGCGGCAGCCUUCAGUAGCGCGAUAGCGCCAACGUUUUCAACUAUGACACGCAAAACGCGUGCUCCGUUGAAUGGAGUUUAUCAUG [A47U C51A G58A G80A G83A C103U] | ≤ -4.2
6 | GGAUCUUCUCGAUCUAACAAAAAAGACAAAUCUGCCACAAAGCUUGAGAGCAUCUUCGGAUGCAGAGACGGCAGCCUUCGGUGGCGCGAUGGCGCCAACGUUCUCAACUAUGACACGCAAAACGCGUACUCCGUUGAAUGGAGUUUAUCAUG [G68A A91G G128A] | ≤ -4.2
7 | GGAUCUUCUCGAUCUAACAAAAAAGACAAAUCUGCCACAAAGCUUGAGAGCAUCUUCGGAUGCAGAGGCGGCAGCCUUCGGUCGCGCGAUAGCGCCAACGUUCUCAACUAUGACACGCAAAACGCUUGCUCCGUUGAAUGGAGUUUAUCAUG [G83C G126U] | 0.246
8 | GGAUCGUCUCGUUCUAACAAAAGAGACAAAUCUGCCAAAAAGCUUGAGAGCAUCUUCGGAUGCAGAGGCGGCAGCCUUCGGUUGCGCGAGAGCGACAACGUUCUCAACUAUGACACGCAAAACGCGUGCUCCGUUGAAUGGAGUUUAUCAUG [U6G A12U A23G C38A G83U U90G C95A] | ≤ -4.2
9 | GGAUCUUCUCGAUCUAACAUAAAAGACAAAUCUGCCACAAUGCUUGAGAGCAUCUUCGGAUGCAGAGGCGGCAGCCUUCGGUUGCGCGCUAGCGCGAACGUUCUCAACUAUGACACGCAAAACGCGUGCUCCGUUGAAUGGAGUUUAUCUUG [A20U A41U G83U A89C C96G A150U] | -2.06
10 | GGAUCUUCUCGAUCUAACAAAAAAGACAAAUCUGCCACAAAGCUUGAGAGCAUCUUCGGAUGCAGAGGCGGCAGUCUUCGGUGUCGCGAUAGCGCCAACGUUCUCAACUAUGACACGCAAAACGCGUGCUCCGUUGAAUGGAGUUUAUCAUG [C75U G84U] | -2.45
11 | GGAUCUUCUCGAUCUAACAAAAAAGACAAAUCUGCCACAAAGCUUGAGAGCAUCUUCGGAUGCAGAGGCGGCAGCCUUCGGUGGAGCGAUAGCGCCAACGUUCUCAACUAUGACACGCAAAACGCGUGCUCCGGUGAAUGGAGUUUAUCAUG [C85A U134G] | -3.6
12 | GGAUCUUCUCGAUCUAACAAAAAAGACAAAUCUGCCACAAAGCUUGAGAGCGUCUUCGGAUGCAGAGGCGGCAGACUUCGGAGGCGCGAUAGCGACAACGUUCUCAACUAUGACACGCAAAACGCGUGCUCCGUUGAAUGGAGUUUAUCAUG [A52G C75A U82A C95A] | ≤ -4.2
13 | GGAUCUUCUCGAUCUAACAAAAAAGACAAAUCUGCCACAAAGCUUGAGAGCGUCUUCCGAUGCAGAGGCGGCAGCCUUCGGUGGCGCGAUAGCGCCAAUGUUCUCAACUAUGACACGCAAAACGCGUGCUCCGUUGAAUGGAGUUUAUCAUG [A52G G58C C99U] | -0.284
14 | GGAUCUUCUCGAUCUAACAAAAAAGACAAAUCUGCCACAAAGCUUGAGCGCCUCUUCGGAUGCAGGGGCGGCAGCCUUCGGUGGCCCGAUAGCGCCAACGUUCUCAACUAUGACACGCGAAACGCGUGCUCCGUUGAAUGGAGUUUAUCAUG [A49C A52C A66G G86C A119G] | ≤ -4.2
15 | GGGUCGUCUCGAUCUAACAAAAAAGACAAAUCUGCCACAAAGCUUGAGAGCAUCUUCGGAUGCAGAGGCGGCAGCCUUCGGUGGCGCGAGAGCGCCAACGUUUUCAACUAUGACACGCAAAACGCGUGCUCCGUUGAAUGCAGUUUAUCAUG [A3G U6G U90G C103U G141C] | ≤ -4.2
16 | GGAUCUUCUCGAUCUAACAAAAAAGACAAAUCUGCCACAAAGCUAGAGAGCAUCUUCGGAUGUAGAGGCGGCAGCCUUCGGUGGCGCGAUAGCGCCAACGUUCUCAACUAUGACACGCAACACGCGUGCUCCGUUGAAUGGAGUUUAUCAUG [U45A C63U A121C] | -3.18
17 | GGAUCUUCUCGAUCUAACAAAAAAGAGAAAUCUGCCACAAAGCUUGAGAGCAUCUUCGGAUGCAGAGGCGGCAGCCUUCGGUGGCGCGAUAGUGCCAACGUUCUCAACUAUGACACGCAAAACGCGUGCGCCGUUGAAUGGAGUUUAUCAAG [C27G C93U U130G U151A] | ≤ -4.2
18 | GGAUCUUCACGAUCUAACAAAAAAGACAAAUCUGCCACAAAGCUUGAGAGCAUCUUCGGAUGCAGAGGCGGCAGCCUUCGGUGGAGCGACAGCGCCAACGUUCACAACUAUGACACGCAAAACGCGGGCUCCGUUGAAUAGAGUUUAUCAUG [U9A C85A U90C U104A U127G G140A] | ≤ -4.2
19 | GGAUCUUCUCGAUCUAACAAAAAAGACAAAUCUGCCACAAAGCUUGAGAGCAUCUUCGGAUGCAGAGGCGGCAGCCUUCGGUGGCGCGAUAGCGCCAACGUUCUCAACUAUGACACGCAAAACGCGUGCUCCGUUGAAUAGAUUUUAUCAUG [G140A G143U] | ≤ -4.2
